According to article PMC5431093, “A HAND to TBX5 Explains the Link Between Thalidomide and Cardiac Diseases” (Scientific Reports, 2017):
Where two headings read alike, the source gives them in different places. Each block holds one molecule with its values, some of them ahead of it.

What was measured:
[1] = molecular target: HA-tagged TBX5 (murine Tbx5 isoform A) (mouse) (UniProt P70326); experiment: co-IP; nuclear extracts of separately transfected HEK293 cells mixed (100 ug each), anti-HA on Protein A/G Dynabeads, 2 h, alone or with DMSO; blot with anti-Flag, re-blot with anti-HA
[2] = molecular target: HA-tagged TBX5 (murine Tbx5 isoform A) (mouse) (UniProt P70326); experiment: as above; remark: listed apart in the source
[3] = molecular target: T1, HA-tagged TBX5 (murine Tbx5 isoform A) (mouse, UniProt P70326 1-518); experiment: cell-based or functional assay
T1 sequence (looked up): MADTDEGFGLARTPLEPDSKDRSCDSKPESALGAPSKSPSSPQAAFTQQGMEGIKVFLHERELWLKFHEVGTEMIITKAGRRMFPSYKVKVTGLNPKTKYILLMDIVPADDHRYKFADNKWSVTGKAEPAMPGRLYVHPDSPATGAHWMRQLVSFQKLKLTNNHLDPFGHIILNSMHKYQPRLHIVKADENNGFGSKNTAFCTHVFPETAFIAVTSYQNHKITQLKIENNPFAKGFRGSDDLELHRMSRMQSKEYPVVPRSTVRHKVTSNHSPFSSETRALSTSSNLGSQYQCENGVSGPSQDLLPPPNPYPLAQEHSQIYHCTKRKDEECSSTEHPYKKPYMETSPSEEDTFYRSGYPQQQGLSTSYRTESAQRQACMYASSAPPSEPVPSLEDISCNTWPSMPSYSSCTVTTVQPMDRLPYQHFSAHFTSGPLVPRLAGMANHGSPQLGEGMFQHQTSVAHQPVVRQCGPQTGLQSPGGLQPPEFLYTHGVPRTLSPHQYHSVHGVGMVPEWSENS

percent inhibition of the co-precipitation against wild-type HAND2 [1]: < 80% | percent inhibition of the co-precipitation against wild-type HAND2 [2]: < 90%
Molecule: Flag-tagged HAND2 p.G202V variant (from UniProt Q61039 1-217) (natural protein)

synergistic activation of the rat NPPA promoter coupled to luciferase in HEK293 cells co-transfected with TBX5 and HAND2 [3]: ≤ 22 fold
B1: Flag-tagged HAND2 wild type (natural protein, mouse, UniProt Q61039 1-217, looked up)
chain: MSLVGGFPHHPVVHHEGYPFAAAAAAAAAAAASRCSHEENPYFHGWLIGHPEMSPPDYSMALSYSPEYASGAAGLDHSHYGGVPPGAGPPGLGGPRPVKRRGTANRKERRRTQSINSAFAELRECIPNVPADTKLSKIKTLRLATSYIAYLMDLLAKDDQNGEAEAFKAEIKKTDVKEEKRKKELNEILKSTVSSNDKKTKGRTGWPQHVWALELKQ
